# Assay results: patent publication US20250213684A1, “COMBINATION THERAPIES COMPRISING ANTIBODY MOLECULES TO TIM-3” (Novartis AG, priority 2015, published 2025)
# T1: human TIM-4 (Homo sapiens, UniProt Q96H15)
# T1 construct: expressed in transfected cells; host or cells: CHO cells
# T1 sequence (Q96H15 25-378): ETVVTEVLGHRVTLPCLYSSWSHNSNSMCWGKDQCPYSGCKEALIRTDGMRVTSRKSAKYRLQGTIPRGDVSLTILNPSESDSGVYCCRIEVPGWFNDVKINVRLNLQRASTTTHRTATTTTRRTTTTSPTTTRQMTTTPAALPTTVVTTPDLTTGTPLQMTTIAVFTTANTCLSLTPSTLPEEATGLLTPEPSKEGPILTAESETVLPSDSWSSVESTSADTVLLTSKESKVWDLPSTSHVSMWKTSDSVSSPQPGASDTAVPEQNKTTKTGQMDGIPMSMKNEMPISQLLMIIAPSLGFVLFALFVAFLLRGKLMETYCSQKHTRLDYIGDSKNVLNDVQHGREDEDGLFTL
# B1: ABTIM3: murine anti-TIM-3 antibody; VH SEQ ID NO: 1, VL SEQ ID NO: 2 (antibody, V domains shown)
# VH: QVQLQQPGAELVKPGASVKMSCKASGYTFTSYNMHWIKQTPGQGLEWIGDIYPGNGDTSYNQKFKGKATLTADKSSSTVYMQLSSLTSEDSAVYYCARVGGAFPMDYWGQGTSVTVSS
# VL: DIVLTQSPASLAVSLGQRATISCRASESVEYYGTSLMQWYQQKPGQPPKLLIYAASNVESGVPARFSGSGSGTDFSLNIHPVEEDDIAIYFCQQSRKDPSTFGGGTKLEIK
# Key:
# [1] = target: T2, TIM-3 binding to PtdSer (phosphatidylserine) (Homo sapiens, UniProt Q8TDQ0); assay: Blocking of TIM-3-Ig binding to PtdSer on anti-CD95-treated WR19L(Fas) cells
# T2 construct: huTIM-3 extracellular domain fused to an Ig Fc region
# Procedure: TIM-3 binds to PtdSer (phosphatidylserine), a lipid that is typically present on the surface of apoptotic cells and not normal cells. Anti-CD95-treated WR19L(Fas) cells were cultured under conditions that promote PtdSer accumulation on the cell surface (flipping of PtdSer from the inner membrane to external exposure upon induction of apoptosis). TIM-3-Ig (huTIM-3 extracellular domain fused to an Ig Fc region) was added to the cells, and binding of TIM-3-Ig to the cells was assayed in the presence of various antibodies.
# [2] = target: T1, human TIM-4; assay: Flow cytometry binding to human TIM-4 expressed in CHO cells
# From the text: (§1) Human TIM-3 has about 23% sequence identity with human TIM-4. Murine TIM-3 has about 66% sequence identity with human TIM-3 and 64% sequence identity with cynomolgus TIM-3.
# [3] = system: K562 cells; assay: In vitro cytotoxic activity of purified NK cells against K562 cells; format: cell-based; conditions: antibody 10 μg/mL, 4-hour incubation with target cells
# Procedure: 5.1 TIM-3 blockade enhances in vitro cytotoxic activity of purified NK cells TIM-3 is highly expressed endogenously on NK (natural killer) cells; its expression is further induced on activated NK cells. TIM-3 may act to restrain NK cell function, as do other inhibitory receptors. See Ndhlovu et al., Blood 119:3734, 2012, and Silva et al., Cancer Immunol Res 2:410, 2014.
# In this assay. NK cells were purified from whole blood by negative bead selection and then incubated with antibody (10 μg/mL) at 37° C. After 1 hour, target K562 cells were added. After a 4-hour incubation at 37° C., the percent of K562 cell killing was measured.
# [4] = system: IL-12 stimulated CD4+ cells; assay: IFN-gamma secretion and proliferation of IL-12 stimulated CD4+ cells; format: cell-based; conditions: IL-12 stimulated CD4+ T cells
# Procedure: The ability of four antibodies to enhance IFN-gamma secretion and proliferation of IL-12 stimulated CD4+ cells was assayed. This assay used the observation that a high dose of IL-12 induces expression of TIM-3 and yields an exhausted phenotype in T cells (see Yang et al., J. Clin. Invest. 122:4 p 1271 2012). […] After PMA/ionomycin restimulation and fixation and permeabilization of cells, the resulting IFN-gamma levels were measured by flow cytometry (y axis) and proliferation was measured by CFSE fluorescence (x axis). FIG. 5B quantifies IFN-gamma expression in cells exposed to these four antibodies.
# [5] = system: PD-L1 IgV/TIM-3 mucin construct; assay: Domain analysis: binding to PD-L1 IgV/TIM-3 mucin chimeric construct; conditions: recombinant construct with TIM-3 IgV domain replaced
# Procedure: TIM-3 has an extracellular IgV domain and a mucin domain. […] 3A. […] The dissociation constant (KD) values were calculated for each tested antibody for the recombinant construct are shown in Table 8.
# [6] = system: naïve T cell / dendritic cell co-culture; assay: Proliferation in autologous T-DC co-cultures (CFSE); format: cell-based; conditions: 0.01-25 μg/mL, four days, anti-CD3/CD28; vs no antibody and mouse IgG1 control
# From the text: TIM-3 can be expressed on dendritic cells (DCs) and T cells. Naïve T cells and dendritic cells were isolated from donor samples. Naïve T cells and conventional DCs were cocultured for four days in the presence of anti-CD3/CD28. […] Cell proliferation was detected by a CFSE proliferation assay, which relies on dilution of CFSE staining to detect proliferating cells.
# [7] = target: T3, murine TIM-3 (Mus musculus, UniProt Q8VIM0); assay: Flow cytometry binding to murine TIM-3 expressed in cells
# T3 construct: expressed in transfected cells
# From the text: as §1
# [8] = system: cynomolgus TIM-3; assay: Flow cytometry binding to cells transfected with cynoTIM-3; set-up: species or system cynomolgus monkey; conditions: overall statement on the binding experiments of Example 1
# Procedure: (§2) Panels of anti-TIM-3 antibodies were assayed for binding to TIM-3 expressing cells.
# [9] = target: T4, human TIM-3 (Homo sapiens, UniProt Q8TDQ0); assay: Flow cytometry binding to cells transfected with human TIM-3; conditions: overall statement on the binding experiments of Example 1
# T4 construct: expressed in transfected cells
# Procedure: as §2
# T3 sequence (Q8VIM0 20-281): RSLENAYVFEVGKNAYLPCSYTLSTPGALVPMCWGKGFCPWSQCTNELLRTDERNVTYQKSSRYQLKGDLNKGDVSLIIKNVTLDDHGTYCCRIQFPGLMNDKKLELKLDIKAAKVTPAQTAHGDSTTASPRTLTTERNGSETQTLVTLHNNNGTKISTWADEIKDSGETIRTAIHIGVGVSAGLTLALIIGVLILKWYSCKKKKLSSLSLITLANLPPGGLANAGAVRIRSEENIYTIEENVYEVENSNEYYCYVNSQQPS
molecule,measurement,setting,value
B1,inhibition of binding of TIM-3 to PtdSer,[1],inhibit the binding of TIM-3 to PtdSer
same,binding to human TIM-4,[2],does not bind
same,percent of K562 cell killing by NK cells,[3],elevated levels of K523 cell killing relative to anti-TIM-3 #2 or the isotype control
same,proliferation,[4]; CFSE,enhances
same,IFN-gamma secretion,[4]; flow cytometry,enhances
same,binding to the chimeric protein of FIG. 3A,[5],do not substantially bind
same,proliferating cells (CFSE-diluted cells),[6],increase in proliferating cells
same,cross-reactivity with murine TIM-3,[7],not cross-reactive
same,affinity for cynomolgus TIM-3,[8],sub-nanomolar
same,affinity for human TIM-3,[9],sub-nanomolar
